These results are taken from patent publication US20160083466A1 (Regeneron, published 2016).

Bounds are passed on as bounds.

B1: H4H10883P (antibody, human IgG4, V domains shown)
VH: QVQLQESGPGLVKSSETLSLTCTVSGGSISSYYWSWIRQPPGKGLEWIGFIYYSGSTNYNPSLKSRVTFSVDTSKNHFSLKLNSVTATDTAVYYCARHYFDSGTYELGPFDYWGQGTLVTVSS
VL: DIVMTQSPDSLAVSLGERATINCKSSQNILLTSSNKNYLTWYQQKPGQPPKLLIYWASIRESGVPDRFSGSGSGTDFTLTISSLQAEDVALYFCQQYYITPFTFGPGTKVDIK
B2: H4H10871P (antibody, human IgG4, V domains shown)
VH: QVQLVQSGAEVMKPGASVKVSCKSSDFAFTTYGISWVRQAPGQGLEWMGWISAYNGNTNYEQRFQGRITMTTDTSTTTVYMELRSLRSDDTAVYYCARDPDYCSSNTCSDAFDLWGQGTMVTVSS
VL: DIQMTQSPSSLSASVRDRVTITCRASQGITNYLAWYQQKPGKVPKVLIYAASTLQSGVPSRFSGSGSGTEFTLAISSLQPEDVATYFCQQYGSAPWTFGQGTKVEIK
B3: H4H10907P (antibody, human IgG4, V domains shown)
VH: EVQLVESGGGLVQPGGSLRLSCAASGFTFSNYDIHWVRQVPGKGLEWISTIGSAGDTFYPGSVKGRFTISRENAKNSLYLQMNSLRAGDSAVYYCARGDNWNYVSWFFDLWGRGTLVTVSS
VL: DIQLTQSPSFLSTSVGDRVTITCWASQDISSFLAWYQQKPGKAPKLLIYAASVLQSGVPSRFSGSGSGTEFTLTISSLQPEDFATYYCQQVNSYPITFGQGTRLEIK
B4: H4H10876P (antibody, human IgG4, V domains shown)
VH: QVQLVQSGAEVKKPGASVKVSCKASEYTFSNYGISWVRQAPGQGLEWLGWIGAYSGFTKYAQKVQDRITMTTDASTTTAYMELRNLRSDDTAVYYCARVGTGTDSYFDFWGQGTLVTVSS
VL: DIQMTQSPSSLSASVGDRVTITCRASQNINSHLNWYQQKPGKAPKLLIYTASSLQSGVPLRFSGSGSGTDFTLTISSLQPEDFGIYICQQTYITPLTFGGGTKVEIK
B5: H4H10863P (antibody, human IgG4, V domains shown)
VH: QVQLVQSGAEVKKPGASVKVSCKASGYTFSSYGISWVRQAPGQGLEWMGWISAYNDNTQYAQKFQGRVTMTTDTSTSTAYMELRSLRSDDTAVYYCARVPLQWFGESFDHWGQGTLVTVSS
VL: DIQMTQSPSSLSASVGDRVTITCRASQDINNYLNWFQQKPGKAPKLLIFSTSSLQSGVPSRFSGSGSGTDFTLTISSLQSEDFATYYCQQTFITPLTFGGGTKVEIK
B6: H4H10905P (antibody, human IgG4, V domains shown)
VH: QVQLVQSGAEVKKPGTSVKVSCKASGYTFTNYGISWVRQAPGQGLEWLGWISAYNDNTDYAQKLQARVTMTTDTFTSTAYMDLRSLRSDDTAVYYCARVPITGTTSSFDFWGQGTLVTVSS
VL: DIQMTQSPSSLSASVGDRVTISCRASQTIYSYLNWFQQKPGKAPKLLIYDASSLQSGVPSRFSGSGSGTHFTLTISSLQPEDFATYFCQQTYSTPLTFGGGTKVEIK
B7: H4H10897P (antibody, human IgG4, V domains shown)
VH: QVQLQESGPGLVKPSETLSLTCTVSGGSISDYYWSWIRQPPGKGLEWIGHIYYSGSTNHNPSLKSRVAISVDTSKNQFSLRLYSVTAADTAVYYCARDGYSSSSGFYYFGMDVWGQGTTVTVSS
VL: DIQLTQSPSFLSASVGDRVTITCWASQDINSYLAWYQQKPGKAPKLLIFAASTLQGGVPSRFSGSGSGTEFTLTISSLQPEDFATYYCQHLSSFPPTFGQGTRLEIK
B8: H2M10690N (antibody, V domains shown)
VH: QVQLVQSGAEVKKPGASVKVSCKASGYTFTSYGISWVRQAPGQGLEWMGWISAYNGNTNYAQKLQGRVTMTTDTSTSTAYMELRSLRSDDTAVYYCARVPITGTTWFDPWGQGTLVTVSS
VL: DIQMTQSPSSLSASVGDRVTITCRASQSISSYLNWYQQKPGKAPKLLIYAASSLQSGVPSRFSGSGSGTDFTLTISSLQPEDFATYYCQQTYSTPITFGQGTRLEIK
notes: also called H2aM10690N
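Wherever 100 nM Monkey IL-25-MMH Bound (RU) is given: Real-time surface plasmon resonance on a Biacore 4000, with IL-25-MMH binding to purified anti-IL-25 antibodies.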

One test has as its target T1, monkey IL-25 expressed with a C-terminal myc-myc-hexahistidine tag (M. fascicularis (cynomolgus monkey)).
T1 construct: also called monkey IL-25-MMH; MfIL-25-MMH
T1 chain: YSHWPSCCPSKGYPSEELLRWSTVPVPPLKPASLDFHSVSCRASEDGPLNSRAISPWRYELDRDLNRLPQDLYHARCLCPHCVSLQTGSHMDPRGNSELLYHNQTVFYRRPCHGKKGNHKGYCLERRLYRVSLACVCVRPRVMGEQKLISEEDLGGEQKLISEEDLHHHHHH
Kind of test: SPR Biacore, captured mAb, 25°C. Background: Surface plasmon resonance follows binding to a sensor surface in real time, without labels.
Experimental: (§1) Equilibrium dissociation constants (KD values) for IL-25 binding to purified anti-IL-25 antibodies were determined using a real-time surface plasmon resonance biosensor assay on a Biacore 4000 instrument (GE Healthcare). […] All the IL-25 reagents were expressed with a C-terminal myc-myc-hexahistidine tag (referred to herein as “IL-25-MMH”). […] Kinetic association (kₐ) and dissociation (kd) rate constants were determined by fitting the real-time sensorgrams to a 1:1 binding model using Scrubber 2.0c curve fitting software.
In general, Kd refers to a measure of binding affinity in units of concentration. One may read the koff as the rate constant with which the complex falls apart. In general, kon refers to a measure of how fast the partners come together. Broadly, the t½ is the time needed for the level to fall by half in the phase considered. Turning to B1, the “100 nM Monkey IL-25-MMH Bound (RU)” value is 58 RU, the equilibrium dissociation constant (Kd) is at most 0.00965 nM, the koff is at most 1e-05 s⁻¹ and the kon was determined as 1.04e+06 M⁻¹ s⁻¹. The t½ amounted to 19.2 h.

With B2, the “100 nM Monkey IL-25-MMH Bound (RU)” value was 42 RU; the affinity, expressed as Kd, was 0.0965 nM; the off-rate (koff) amounted to 6.06e-05 s⁻¹; the association rate constant (kon) stood at 628000 M⁻¹ s⁻¹. Further, the t½ stood at 3.18 h.

Turning to B3, the “100 nM Monkey IL-25-MMH Bound (RU)” value stood at 43 RU; the affinity, expressed as Kd, was 0.0485 nM; the koff worked out at 6.74e-05 s⁻¹; the kon is 1.39e+06 M⁻¹ s⁻¹. Besides, the t½ stood at 2.85 h.

With B4, the “100 nM Monkey IL-25-MMH Bound (RU)” value was 51 RU, the Kd was 0.218 nM, the off-rate (koff) was found to be 7.18e-05 s⁻¹ and the kon worked out at 329000 M⁻¹ s⁻¹. For the same molecule, the t½ was found to be 2.68 h.

B5: the “100 nM Monkey IL-25-MMH Bound (RU)” value is 39 RU, the dissociation constant (Kd) amounted to 0.199 nM, the koff worked out at 6.83e-05 s⁻¹ and the association rate constant (kon) stood at 343000 M⁻¹ s⁻¹. For the same molecule, the t½ came out at 2.82 h.

Turning to B6, the “100 nM Monkey IL-25-MMH Bound (RU)” value was 54 RU, the dissociation constant (Kd) worked out at 0.186 nM, the koff was determined as 7.77e-05 s⁻¹ and the on-rate constant (kon) was 417000 M⁻¹ s⁻¹. This molecule also yielded a t½ of 2.48 h.

B7: the “100 nM Monkey IL-25-MMH Bound (RU)” value was determined as 42 RU, the Kd came to 0.0749 nM, the koff was determined as 8.43e-05 s⁻¹ and the kon was 1.13e+06 M⁻¹ s⁻¹. The molecule also came in with a t½ of 2.28 h.

A further test deals with T2, human IL-25 expressed with a C-terminal myc-myc-hexahistidine tag (human).
T2 construct: also called human IL-25-MMH; hIL-25-MMH
T2 chain: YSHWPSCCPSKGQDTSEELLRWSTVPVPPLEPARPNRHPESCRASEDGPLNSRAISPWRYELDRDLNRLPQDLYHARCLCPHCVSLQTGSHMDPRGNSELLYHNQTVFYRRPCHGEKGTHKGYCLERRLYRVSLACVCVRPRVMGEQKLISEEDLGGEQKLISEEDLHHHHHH
Nature of the test: SPR Biacore, captured mAb, 25°C.
Experimental: as §1
Regarding B1, the “100 nM Human IL-25-MMH Bound (RU)” value turned out to be 56 RU, the dissociation constant Kd is at most 0.0142 nM, the dissociation rate constant (koff) is at most 1e-05 s⁻¹ and the kon came to 706000 M⁻¹ s⁻¹. Further, the t½ worked out at 19.2 h.

In the case of B2, the “100 nM Human IL-25-MMH Bound (RU)” value was 38 RU, the Kd was determined as 0.0851 nM, the koff was found to be 6.38e-05 s⁻¹ and the kon was determined as 749000 M⁻¹ s⁻¹. The t½ was 3.02 h.

With B3, the “100 nM Human IL-25-MMH Bound (RU)” value is 40 RU, the Kd was determined as 0.0883 nM, the dissociation rate constant (koff) was determined as 6.5e-05 s⁻¹ and the kon was 736000 M⁻¹ s⁻¹. The t½ is 2.97 h.

As for B4, the “100 nM Human IL-25-MMH Bound (RU)” value turned out to be 45 RU; the affinity, expressed as Kd, was 0.124 nM; the off-rate constant (koff) was 4.78e-05 s⁻¹; the kon was 386000 M⁻¹ s⁻¹. The t½ came to 4.03 h.

For B8, the “100 nM Human IL-25-MMH Bound (RU)” value amounted to 32 RU, binding was put at a Kd of 36.2 nM, the koff was found to be 0.0029 s⁻¹ and the kon worked out at 80200 M⁻¹ s⁻¹. Further, the t½ was found to be 0.0667 h.

In the case of B5, the “100 nM Human IL-25-MMH Bound (RU)” value is 34 RU, binding was put at a Kd of 0.279 nM, the koff came out at 7.25e-05 s⁻¹ and the on-rate (kon) was determined as 260000 M⁻¹ s⁻¹. For the same molecule, the t½ worked out at 2.65 h.

Consider B6, for which the “100 nM Human IL-25-MMH Bound (RU)” value worked out at 49 RU, binding was put at a Kd of 0.228 nM, the koff was 0.000109 s⁻¹ and the kon amounted to 478000 M⁻¹ s⁻¹. The molecule further displayed a t½ of 1.77 h.

As to B7, the “100 nM Human IL-25-MMH Bound (RU)” value is 39 RU, the dissociation constant (Kd) was 0.126 nM, the koff came out at 7.87e-05 s⁻¹ and the on-rate constant (kon) amounted to 623000 M⁻¹ s⁻¹. The same molecule registered a t½ of 2.45 h.

For a further test, the target named is T2, human IL-25 expressed with a C-terminal …. Kind of test: SPR Biacore, captured mAb, 37°C.
Experimental: as §1
With B1, the “100 nM Human IL-25-MMH Bound (RU)” value is 74 RU, binding was characterised by a dissociation constant (Kd) of 0.0304 nM, the off-rate constant (koff) is 4.8e-05 s⁻¹ and the kon was 1.58e+06 M⁻¹ s⁻¹. The molecule also displayed a t½ of 4.02 h.

Consider B2, for which the “100 nM Human IL-25-MMH Bound (RU)” value was determined as 49 RU, the Kd turned out to be 0.0276 nM, the koff stood at 3.18e-05 s⁻¹ and the on-rate (kon) was determined as 1.15e+06 M⁻¹ s⁻¹. For the same molecule, the t½ was found to be 6.05 h.

Take B3: the “100 nM Human IL-25-MMH Bound (RU)” value was determined as 47 RU, the Kd amounted to 0.0375 nM, the koff was found to be 4.45e-05 s⁻¹ and the association rate constant (kon) came out at 1.19e+06 M⁻¹ s⁻¹. The molecule also returned a t½ of 4.32 h.

Take B4: the “100 nM Human IL-25-MMH Bound (RU)” value came to 60 RU; the affinity, expressed as Kd, was 0.0944 nM; the koff came to 5.93e-05 s⁻¹; the association rate constant (kon) worked out at 628000 M⁻¹ s⁻¹. This molecule also had a t½ of 3.25 h.

For the molecule B8, the “100 nM Human IL-25-MMH Bound (RU)” value came to 39 RU, the equilibrium dissociation constant (Kd) worked out at 61.4 nM, the koff was determined as 0.00844 s⁻¹ and the kon amounted to 137000 M⁻¹ s⁻¹. The t½ came out at 0.0233 h.

For B5, the “100 nM Human IL-25-MMH Bound (RU)” value is 46 RU, the equilibrium dissociation constant (Kd) is 0.128 nM, the koff was 7.78e-05 s⁻¹ and the association rate constant (kon) was 606000 M⁻¹ s⁻¹. For the same molecule, the t½ amounted to 2.48 h.

As to B6, the “100 nM Human IL-25-MMH Bound (RU)” value came to 55 RU; the affinity, expressed as Kd, was 0.149 nM; the koff was found to be 0.00012 s⁻¹; the on-rate (kon) was 809000 M⁻¹ s⁻¹. The molecule further yielded a t½ of 1.6 h.

Take B7: the “100 nM Human IL-25-MMH Bound (RU)” value worked out at 48 RU, the Kd came to 0.218 nM, the koff worked out at 0.000226 s⁻¹ and the kon turned out to be 1.04e+06 M⁻¹ s⁻¹. Also, the t½ worked out at 0.85 h.
